PMC11666439

Key:
[1] = target: SARS-CoV-2 spike wt (in-house) (SARS-CoV-2) (UniProt P0DTC2); test: ELISA
[2] = target: ACE-2-Fc fusion protein (human) (UniProt Q9BYF1); test: BLI
Sequence of UniProt Q9BYF1 (Q9BYF1 18-740): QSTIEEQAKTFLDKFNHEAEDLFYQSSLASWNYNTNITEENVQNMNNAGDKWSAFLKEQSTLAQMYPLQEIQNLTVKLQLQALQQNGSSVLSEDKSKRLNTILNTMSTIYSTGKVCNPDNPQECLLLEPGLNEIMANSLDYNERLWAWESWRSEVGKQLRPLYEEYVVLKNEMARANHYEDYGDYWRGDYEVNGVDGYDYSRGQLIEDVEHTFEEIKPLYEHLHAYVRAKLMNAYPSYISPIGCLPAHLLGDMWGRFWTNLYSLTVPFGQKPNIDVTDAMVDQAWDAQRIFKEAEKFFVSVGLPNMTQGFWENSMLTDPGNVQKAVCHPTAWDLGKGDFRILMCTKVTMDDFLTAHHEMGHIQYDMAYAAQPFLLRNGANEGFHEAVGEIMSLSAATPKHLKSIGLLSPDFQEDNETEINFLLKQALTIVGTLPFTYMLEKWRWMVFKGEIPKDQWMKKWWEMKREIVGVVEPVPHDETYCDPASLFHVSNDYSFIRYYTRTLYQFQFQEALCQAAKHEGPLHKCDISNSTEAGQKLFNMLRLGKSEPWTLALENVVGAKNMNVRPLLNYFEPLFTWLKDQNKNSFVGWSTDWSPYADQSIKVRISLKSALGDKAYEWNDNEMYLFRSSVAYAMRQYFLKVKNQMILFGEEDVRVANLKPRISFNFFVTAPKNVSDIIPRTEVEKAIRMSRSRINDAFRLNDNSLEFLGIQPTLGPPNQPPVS

| Substance | fold increase of binding after total IgG depletion of vaccinee plasma [1] [fold] | Kd [2] [nM] | fold improvement of kdis compared to the wt [2] [fold] | koff [2] [s⁻¹] | kon [2] [M⁻¹ s⁻¹] |
| --- | --- | --- | --- | --- | --- |
| native MBL from sera (from UniProt P11226 21-248) (natural protein) | 2.6 |  |  |  |  |
| SARS-CoV-2 RBD wt (domain or fragment) |  | 23.4 |  |  |  |
| SARS-CoV-2 RBD Omicron BA.2 (domain or fragment) |  | 4.47 | 1.76 | 0.0032 | 716000 |
